According to patent US20100273160A1:

Biological target: T1, MIS type II receptor (MISRII) on mouse ovarian cancer cell lines MOVCAR 7 and 4306 (mouse) (UniProt Q8K592)
T1 sequence (looked up): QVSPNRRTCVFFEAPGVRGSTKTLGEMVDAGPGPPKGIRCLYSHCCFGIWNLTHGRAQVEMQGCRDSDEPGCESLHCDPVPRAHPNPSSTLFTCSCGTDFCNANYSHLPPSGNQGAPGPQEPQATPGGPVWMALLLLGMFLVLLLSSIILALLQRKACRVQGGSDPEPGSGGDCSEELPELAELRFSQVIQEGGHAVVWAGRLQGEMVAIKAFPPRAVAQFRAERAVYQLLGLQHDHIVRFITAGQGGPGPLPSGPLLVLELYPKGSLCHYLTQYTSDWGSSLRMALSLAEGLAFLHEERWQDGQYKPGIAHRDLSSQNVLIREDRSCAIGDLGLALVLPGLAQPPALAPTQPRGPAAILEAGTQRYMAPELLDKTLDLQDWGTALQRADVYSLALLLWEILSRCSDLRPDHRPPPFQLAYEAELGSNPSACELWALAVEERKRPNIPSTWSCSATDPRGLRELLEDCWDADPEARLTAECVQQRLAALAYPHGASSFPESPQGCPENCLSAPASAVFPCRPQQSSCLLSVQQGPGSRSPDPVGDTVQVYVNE
Experiment: cell-based or functional assay

- MTT proliferation assay, 4306 SP cells after first sort, 10 µg/ml MIS, inhibition versus vehicle: 37%
- MTT proliferation assay, 4306 SP cells after sort 2, MIS, inhibition: 60%
- MTT proliferation assay, 4306 SP cells after sort 3, MIS, inhibition (not significant): 17%
- MTT proliferation assay, MOVCAR 7 NSP cells after first sort, 10 µg/ml MIS, inhibition versus vehicle: 93%
- MTT proliferation assay, MOVCAR 7 SP cells after first sort, 10 µg/ml MIS, inhibition versus vehicle: 86%
- MTT proliferation assay, MOVCAR 7 SP cells after sort 2, MIS, inhibition: 93%
- MTT proliferation assay, MOVCAR 7 SP cells after sort 3, MIS, inhibition: 94%
B1: recombinant human Mullerian Inhibiting Substance (MIS) (ligand)
chain: LRAEEPAVGTSGLIFREDLDWPPGSPQEPLCLVALGGDSNGSSSPLRVVGALSAYEQAFLGAVQRARWGPRDLATFGVCNTGDRQAALPSLRRLGAWLRDPGGQRLVVLHLEEVTWEPTPSLRFQEPPPGGAGPPELALLVLYPGPGPEVTVTRAGLPGAQSLCPSRDTRYLVLAVDRPAGAWRGSGLALTLQPRGEDSRLSTARLQALLFGDDHRCFTRMTPALLLLPRSEPAPLPAHGQLDTVPFPPPRPSAELEESPPSADPFLETLTRLVRALRVPPARASAPRLALDPDALAGFPQGLVNLSDPAALERLLDGEEPLLLLLRPTAATTGDPAPLHDPTSAPWATALARRVAAELQAAAAELRSLPGLPPATAPLLARLLALCPGGPGGLGDPLRALLLLKALQGLRVEWRGRDPRGPGRAQRSAGATAADGPCALRELSVDLRAERSVLIPETYQANNCQGVCGWPQSDRNPRYGNHVVLLLKMQARGAALARPPCCVPTAYAGKLLISLSEERISAHHVPNMVATECGCR
